Several values for one entry are separate records, joined by “and”; a condition that tells them apart may be missing. Equal values may be shown once.
Key:
[1] = target: P14 T cell receptor (TCR that specifically recognizes LCMV GP33/D^b), on CD8+ T cells of P14 TCR transgenic mice (mouse)
[2] = target: Pmel T cell receptor (cognate TCR against GP100/D^b), on CD8+ T cells of Pmel TCR transgenic mice (mouse); test: cell-based or functional assay
[3] = target: P14 T cell receptor (TCR that specifically recognizes LCMV GP33/D^b), on CD8+ T cells of P14 TCR transgenic mice (mouse); test: cell-based or functional assay
[4] = target: P14 T cell receptor (TCR that specifically recognizes LCMV GP33/D^b), on CD8+ T cells of P14 TCR transgenic mice (mouse); remark: listed apart in the source
[5] = target: P14 T cell receptor (TCR that specifically recognizes LCMV GP33/D^b), on CD8+ T cells of P14 TCR transgenic mice (mouse); test: flow cytometry after intravenous injection of pMHC-LNPs carrying mCD19 CAR mRNA in p14 mice
[6] = target: P14 T cell receptor (TCR that specifically recognizes LCMV GP33/D^b), on CD8+ T cells of P14 TCR transgenic mice (mouse); test: flow cytometry, APNs on CD8+ T cells from P14 mice, in vitro

Substance: GP33/D^b tetramer (fluorescent streptavidin tetramer of […]/H2-D^b monomers) (from UniProt P01899 25-309) (peptide-MHC)
- percent of CD8+ splenocytes stained [1]: > 95%

Substance: GP33/D^b antigen-presenting nanoparticle (APN): LCMV GP33 peptide […] on H2-D^b, lipid-anchore (peptide-MHC)
- in vivo transfection of Pmel CD8+ splenocytes (surface VHH) [2]: 3%
- in vivo transfection efficiency (surface VHH) of P14 CD8+ splenocytes [3]: 40%
- in vivo transfection efficiency of mCD19 CAR mRNA in CD8+ T cells of p14 mice [3]: 60%
- in vivo transfection of CD8+ T cells with hCD19 CAR mRNA in p14 mice [3]: 30%
- transfection efficiency with eGFP mRNA in P14 CD8+ T cells in vitro [3]: 31%
- percent of CD8+ T cells targeted (DiD fluorescence) [4]: > 95%
- percent of CD8+ T cells targeted [5]: > 80%
- percent of CD8+ T cells bound [6]: 97%

Substance: GP100/D^b antigen-presenting nanoparticle (APN): GP100 peptide … on H2-D^b on an mRNA lipid nanoparticle (peptide-MHC)
- in vivo transfection of Pmel CD8+ splenocytes (surface VHH) [2]: 30% and 40%
- in vivo transfection efficiency (surface VHH) of P14 CD8+ splenocytes [3]: < 2%
- percent binding (DiD fluorescence) [4]: < 2%
- percent of CD8+ T cells stained [6]: 3.22%

From patent publication US20240382606A1
